The series concerns Escherichia coli TOP10. The experiment in a line: shrunken log2 fold change of peptide-encoding DNA abundance (4.5 h post-induction vs induction); higher = less antimicrobial activity (less host growth inhibition). The note with it: time post-induction: 4.5 h; library: site-saturation at positions 5, 18, 19, 20.
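Note: peptides expressed intracellularly from a pBAD plasmid library in pooled LB shake-flask culture, induced with 0.3% L-arabinose, DNA abundance read by NGS, three biological replicates, DESeq2 with apeglm shrinkage.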

For the sequence RRIRGRPPRLPRPRPRPSNHPRP, the “shrunken log2 fold change” value was -0.145.

As for RRIRLRPPRLPRPRPRPETEPRP, the “shrunken log2 fold change” value amounted to 0.0833. The result for RRIRTRPPRLPRPRPRPERPPRP reads 0.267. As to RRIRPRPPRLPRPRPRPIQAPRP, the “shrunken log2 fold change” value amounted to 0.144. To RRIRPRPPRLPRPRPRPGEFPRP belongs 0.318. To RRIRWRPPRLPRPRPRPGCTPRP belongs 0.194; to RRIRVRPPRLPRPRPRPKPHPRP, 0.264; to RRIRMRPPRLPRPRPRPIKKPRP, 0.0441.

On to RRIRSRPPRLPRPRPRPVTLPRP, for which the “shrunken log2 fold change” value was -0.167. The result for RRIRQRPPRLPRPRPRPHQEPRP reads -0.00692.

For RRIRIRPPRLPRPRPRPQVRPRP, the “shrunken log2 fold change” value was -0.223.

With RRIRKRPPRLPRPRPRPPWAPRP, the “shrunken log2 fold change” value is 0.496. The result for RRIRQRPPRLPRPRPRPCNAPRP reads 0.0357. To RRIRLRPPRLPRPRPRPWARPRP belongs 0.482; to RRIRWRPPRLPRPRPRPGPKPRP, 0.21; to RRIRHRPPRLPRPRPRPLKYPRP, -0.345. To RRIRFRPPRLPRPRPRPKYKPRP belongs -0.63; to RRIRFRPPRLPRPRPRPTLKPRP, -0.0426.

In the case of RRIRNRPPRLPRPRPRPGHHPRP, the “shrunken log2 fold change” value is -0.00875. To RRIRLRPPRLPRPRPRPFAMPRP belongs -0.407. As for RRIRKRPPRLPRPRPRPYNCPRP, the “shrunken log2 fold change” value was 0.00529. To RRIRYRPPRLPRPRPRPKRNPRP belongs -0.374. As for RRIRQRPPRLPRPRPRPFLDPRP, the “shrunken log2 fold change” value was -0.372. To RRIRPRPPRLPRPRPRPTTLPRP belongs -0.0741. The result for RRIRQRPPRLPRPRPRPSWVPRP reads -0.0385; that for RRIRKRPPRLPRPRPRPVFNPRP, 0.117; that for RRIRGRPPRLPRPRPRPVESPRP, 0.00705.

Consider RRIRRRPPRLPRPRPRPNGLPRP, for which the “shrunken log2 fold change” value amounted to 0.0125. The result for RRIRFRPPRLPRPRPRPWLGPRP reads 0.0212; that for RRIRCRPPRLPRPRPRPVRMPRP, -0.053; that for RRIRRRPPRLPRPRPRPPNTPRP, 0.884. To RRIRSRPPRLPRPRPRPYIQPRP belongs -1.18. Regarding RRIRHRPPRLPRPRPRPGWYPRP, the “shrunken log2 fold change” value is -0.018. As to RRIRSRPPRLPRPRPRPIAKPRP, the “shrunken log2 fold change” value is -0.0775. To RRIRYRPPRLPRPRPRPKHCPRP belongs -0.611. The result for RRIRCRPPRLPRPRPRPDHYPRP reads -0.211; that for RRIRARPPRLPRPRPRPWIWPRP, 0.111. To RRIRMRPPRLPRPRPRPMPAPRP belongs 1.07. On to RRIRARPPRLPRPRPRPLPNPRP, for which the “shrunken log2 fold change” value was found to be 0.286. On to RRIRMRPPRLPRPRPRPLEKPRP, for which the “shrunken log2 fold change” value was 1.07.

For the sequence RRIRKRPPRLPRPRPRPKCCPRP, the “shrunken log2 fold change” value was determined as 0.0349. To RRIRTRPPRLPRPRPRPSHTPRP belongs -0.0162. To RRIRGRPPRLPRPRPRPKYWPRP belongs 1.13. As for RRIRWRPPRLPRPRPRPPMKPRP, the “shrunken log2 fold change” value came to 0.234. To RRIRNRPPRLPRPRPRPIQWPRP belongs 0.0441; to RRIRKRPPRLPRPRPRPVHVPRP, 0.0513; to RRIRDRPPRLPRPRPRPPSMPRP, -0.147. To RRIRYRPPRLPRPRPRPQKLPRP belongs -0.418; to RRIRVRPPRLPRPRPRPRQFPRP, 0.238; to RRIRYRPPRLPRPRPRPLCAPRP, -0.356. To RRIRARPPRLPRPRPRPSINPRP belongs -0.308; to RRIRPRPPRLPRPRPRPYVLPRP, -0.519.

Take RRIRRRPPRLPRPRPRPAAWPRP: the “shrunken log2 fold change” value was 0.0944. The result for RRIRNRPPRLPRPRPRPQNFPRP reads 0.0364. To RRIRERPPRLPRPRPRPNDWPRP belongs -0.133.

As to RRIRVRPPRLPRPRPRPCTAPRP, the “shrunken log2 fold change” value was 0.172.

For RRIRGRPPRLPRPRPRPTGMPRP, the “shrunken log2 fold change” value is 0.851. The result for RRIRYRPPRLPRPRPRPDRRPRP reads -0.177; that for RRIRWRPPRLPRPRPRPSQNPRP, 0.236; that for RRIRYRPPRLPRPRPRPTYLPRP, -0.824.

For RRIRRRPPRLPRPRPRPGTGPRP, the “shrunken log2 fold change” value stood at 0.21.

Take RRIRCRPPRLPRPRPRPIAYPRP: the “shrunken log2 fold change” value is -0.113. To RRIRYRPPRLPRPRPRPRQKPRP belongs 0.114; to RRIRLRPPRLPRPRPRPMTSPRP, 0.142; to RRIRKRPPRLPRPRPRPQLVPRP, 0.225. The result for RRIRWRPPRLPRPRPRPTIYPRP reads 0.113.

RRIRVRPPRLPRPRPRPNHMPRP: the “shrunken log2 fold change” value is -0.0124.

Take RRIRRRPPRLPRPRPRPFTEPRP: the “shrunken log2 fold change” value is -0.267. The result for RRIRVRPPRLPRPRPRPKDVPRP reads 0.00902; that for RRIRERPPRLPRPRPRPMTGPRP, -0.0422. For RRIRHRPPRLPRPRPRPDPGPRP, the “shrunken log2 fold change” value is -0.199.

As to RRIRSRPPRLPRPRPRPNDSPRP, the “shrunken log2 fold change” value was -0.342.

In the case of RRIRARPPRLPRPRPRPPRRPRP, the “shrunken log2 fold change” value amounted to 0.923. The result for RRIRYRPPRLPRPRPRPSIEPRP reads -1.02. Consider RRIRYRPPRLPRPRPRPVDYPRP, for which the “shrunken log2 fold change” value was -0.213. To RRIRNRPPRLPRPRPRPATQPRP belongs -0.0108; to RRIRDRPPRLPRPRPRPIKMPRP, 0.0713; to RRIRGRPPRLPRPRPRPTHTPRP, 0.862. Take RRIRDRPPRLPRPRPRPQHAPRP: the “shrunken log2 fold change” value was 0.044. To RRIRSRPPRLPRPRPRPSSMPRP belongs -0.422. In the case of RRIRIRPPRLPRPRPRPLVVPRP, the “shrunken log2 fold change” value is -0.25. To RRIRMRPPRLPRPRPRPELIPRP belongs 3.16; to RRIRCRPPRLPRPRPRPTVMPRP, 0.0757.

As for RRIRQRPPRLPRPRPRPGIYPRP, the “shrunken log2 fold change” value is -0.0206.

As for RRIRWRPPRLPRPRPRPYAWPRP, the “shrunken log2 fold change” value turned out to be 0.122. For RRIRLRPPRLPRPRPRPGPHPRP, the “shrunken log2 fold change” value is -0.0887.

On to RRIRTRPPRLPRPRPRPNAAPRP, for which the “shrunken log2 fold change” value was 0.371. The result for RRIRHRPPRLPRPRPRPSQNPRP reads -0.0324; that for RRIRMRPPRLPRPRPRPVCIPRP, -0.0455; that for RRIRSRPPRLPRPRPRPNQCPRP, -0.215. To RRIRFRPPRLPRPRPRPGNTPRP belongs -0.12; to RRIRVRPPRLPRPRPRPQNYPRP, -0.285. RRIRNRPPRLPRPRPRPPRVPRP: the “shrunken log2 fold change” value amounted to 0.379. As for RRIRWRPPRLPRPRPRPKNLPRP, the “shrunken log2 fold change” value came to 0.0793. Consider RRIRDRPPRLPRPRPRPDGEPRP, for which the “shrunken log2 fold change” value was -0.0121. To RRIRDRPPRLPRPRPRPLFMPRP belongs 0.154; to RRIRGRPPRLPRPRPRPQLPPRP, 0.183. The result for RRIRPRPPRLPRPRPRPKFMPRP reads -0.171. The result for RRIRGRPPRLPRPRPRPHSAPRP reads 0.0365; that for RRIRIRPPRLPRPRPRPHVFPRP, 0.064; that for RRIRLRPPRLPRPRPRPTKGPRP, 0.226. In the case of RRIRPRPPRLPRPRPRPRNAPRP, the “shrunken log2 fold change” value amounted to 0.39.

On to RRIRSRPPRLPRPRPRPNICPRP, for which the “shrunken log2 fold change” value was -0.0465. The result for RRIRNRPPRLPRPRPRPYRNPRP reads -0.0239. The result for RRIRVRPPRLPRPRPRPCGGPRP reads -0.0341; that for RRIRMRPPRLPRPRPRPAFFPRP, 0.403. Turning to RRIRNRPPRLPRPRPRPHMRPRP, the “shrunken log2 fold change” value is -0.00174. To RRIRNRPPRLPRPRPRPPLYPRP belongs -0.101. The result for RRIRVRPPRLPRPRPRPGFDPRP reads 0.0552; that for RRIRSRPPRLPRPRPRPWAGPRP, -0.255. To RRIRTRPPRLPRPRPRPSCWPRP belongs 0.00851; to RRIRARPPRLPRPRPRPRFKPRP, 0.122; to RRIRYRPPRLPRPRPRPEVGPRP, 0.0159. Turning to RRIRSRPPRLPRPRPRPIHIPRP, the “shrunken log2 fold change” value is -0.157.

Regarding RRIRIRPPRLPRPRPRPYLNPRP, the “shrunken log2 fold change” value was -0.239. The result for RRIRNRPPRLPRPRPRPAFQPRP reads -0.0462; that for RRIRLRPPRLPRPRPRPYPTPRP, -0.317. As for RRIRPRPPRLPRPRPRPIVAPRP, the “shrunken log2 fold change” value is 0.133. To RRIRKRPPRLPRPRPRPFKWPRP belongs 0.33; to RRIRMRPPRLPRPRPRPYHLPRP, 0.00229. To RRIRMRPPRLPRPRPRPGTIPRP belongs 0.228; to RRIRIRPPRLPRPRPRPMCQPRP, 0.0317; to RRIRWRPPRLPRPRPRPLWQPRP, 0.156. To RRIRSRPPRLPRPRPRPRFPPRP belongs 0.198. For RRIRWRPPRLPRPRPRPACWPRP, the “shrunken log2 fold change” value amounted to 0.517.
